Results as given in the nanobody polyreactivity screen of Harvey et al. (2022).

Assay: yeast display, Sf9 membrane polyspecificity reagent, FACS + sequencing; frameworks hold sequencing errors
Procedure, shortened: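 Nanobodies from a synthetic yeast display library (Saccharomyces cerevisiae BJ5465), induced 36–48 hours with galactose, were stained 1 hour at 4 °C with 10% biotinylated, detergent-solubilized Sf9 membrane reagent, enriched on streptavidin microbeads, then FACS-sorted. Anti-HA (expression) and streptavidin (reagent binding) fluorescence set low and high (top ~1%) gates. Polyreactivity labels come from the gate of origin. Genes were colony-PCR amplified, MiSeq 2 × 250 sequenced and filtered by CDR length.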

| Sequence | polyreactivity (PSR sort gate) |
| --- | --- |
| QVQLVESGGGLVQAGGSLRLSSAASGLIFTRYAMGWYRQATGKERELVAAISYSGTSTYYADSVKGRFTISRDNAKNTVYLQMNSLKPEDTAVYYCAARSSYPLKGYYWGQGTQVTVSS | high polyreactivity |
| QVQLVESGGGLVQAGGSLRLSSAASGNIFPAYPMGWYRQAPGKERELVAAISKSGGRTYYADSVKGRFTISRDNAKNTVYLQMNSLKPEDTAVYYALLTVLRAVPYSVRYDYWGQGTQVTVSS | high polyreactivity |
| QVQLVESGGGLVQAGGSLRLSSAASGNIFSDYAMGWNIQAPGKERELVAAISSGGNTNYADSVKGRFTISRDNAKNTVYLQMNSLKPEDTAVYYCAAVYNTTYTLLPEYIYDYWGHGTQVTVSS | low polyreactivity |
| QVQLVESGGGLVQAGGSLRLSSAASGNIFYTNTMGWYRQAPGKERELVAAITSGGTTYYADSVKGRFTISRDNAKNTVYLQMNSLKPEDTAVYYCAVRSSKWSWIYYYWGQGTQVTVSS | high polyreactivity |
| QVQLVESGGGLVQAGGSLRLSSAASGRIFDDNAMGWYRQAPGKERELVAAITGPDDSTDYADSVKGRFTISRDNAKNTVYLQMNSLKPEDTAVYYCAKDAGYWYYWNGYWGQGTQVTVSS | high polyreactivity |
| QVQLVESGGGLVQAGGSLRLSSAASGRIFGRYAMGWYRQAPGKERELVDAITCTGGTTYYADSVKGRFTISRDNAKNTVYLQMNSLKPEDTAVYYCAARQGYGIYGDYYYWGQGTHVTVSS | high polyreactivity |
| QVQLVESGGGLVQAGGSLRLSSAASGRIFIDYAMGWYRQAPGTDRELVATITSSGGSTYYADSVKGRFTISRDNAKNTVYIQMTSLKPVDTAVYYCNAKERYYFGNYKYGYWGQGTQVTVSS | low polyreactivity |
| QVQLVESGGGLVQAGGSLRLSSAASGRIFKDNAMGWYRQAPGKERELVAAISSGASTSYADSVKGRFTISRDNAKNTVYLQMNSLKPEDTAVYYCNRGGYLYYPGWLFDYWGQGTQVTVSS | low polyreactivity |
| QVQLVESGGGLVQAGGSLRLSSAASGRIFNIYAMGWYRQAPGKERELVARITSGGRTNYADSVKGRFTISRDNAKNTVYLQRNSLKPEDTAVYYCAARTYGQRGDYWGQGTQVTVSS | high polyreactivity |
| QVQLVESGGGLVQAGGSLRLSSAASGRIFPYYAMGWYRQAPGKERELVAAITSSGGSTYYADSVKGRFTISRDTAKNTVYFQMNSLKPEDSAVYYCAGTSPYDDYPYTRGIYAYGYWGQCTQVTVSS | low polyreactivity |
| QVQLVESGGGLVQAGGSLRLSSAASGRIFQKYAMGWYRPAPGKERELVAAISSGDSTYADSVKGRFTISRDNAKNTVYLQMNSLKPEDTAVYYCAADDRWDYDYWGQGTQGTVSS | low polyreactivity |
| QVQLVESGGGLVQAGGSLRLSSAASGRIFRGNVMGWYRQAPGKERELVAVIRSSSGRTYYADSVKGRFTISRDNAKNTVYLQMNSLKPEDTAVYDCAAKSVWGQGTQVTVSS | high polyreactivity |
| QVQLVESGGGLVQAGGSLRLSSAASGRIFRHYAMGWYRQAPGKERELVASITRGDNTYYADSVKGRFTISRDNAKNTVYLQMNSLKPEDSAVYYCAAVFYSYSSASEYYYWGQGTQVTVSS | high polyreactivity |
| QVQLVESGGGLVQAGGSLRLSSAASGRIFSYNAMGWYRQAPGKERELVASISYSGTSTYYADSVKGRFTISRDNAKNTVYLQMNRLKPEDTAVYYCAALSRRRFGYWGQGTQVTVSS | high polyreactivity |
| QVQLVESGGGLVQAGGSLRLSSAASGRIFTYYAMGWYRQAPGKERELVATISRRGGSTYYADSVKGRFTISRDNAKNTVYLQMNSLKPEDTAVYYCNRTYYGYDYWGHGTQVTVSS | high polyreactivity |
| QVQLVESGGGLVQAGGSLRLSSAASGRIFWFNAMGWYRQAPGKEREWVATISSGDSTNYADSVKGRFTISRDNAKNTVYLQMNSLKPDDTAVYYCNARVSHVQVGFDSWGQCTQVTVSS | low polyreactivity |
| QVQLVESGGGLVQAGGSLRLSSAASGRIFYGYAMGWYRQAPGKERELVAAISWSGGSTYYADSVKWRFTISRDNAKNTVYLQMNSLKPEDTAVYYCARRDRGGYKYDYWGQGTQVTVSS | high polyreactivity |
| QVQLVESGGGLVQAGGSLRLSSAASGRIFYNYAMGWYRQSPGKERELVAAISGSGGSTYYADSVKGRFTISRDNAKNTVYLQMNSLKPEDTAVFYCSTSGPQYYSRNFDYWGQGTQVTVSS | low polyreactivity |
| QVQLVESGGGLVQAGGSLRLSSAASGRIFYRNAMGWCRQAPGKERELVASITSAGRRYYADSVKGRFTISRDNAKNTVYLQMNSLKPEDTAVYYCAVRVAVLLNLYGYWGQGTQVTVSS | low polyreactivity |
| QVQLVESGGGLVQAGGSLRLSSAASGRIFYYNAMGWYSQAPGKERELVAAITRGGSTYYADSVKGRFTISRDNAKNTVYLQMNSLKPEDTAVYYCAAYLDYWSYLNGQYDYWGQGTQVTVSS | high polyreactivity |
| QVQLVESGGGLVQAGGSLRLSSAASGRIIDDNTMGWYRQAPGKERELVAAISVSGGRTYYADSVKGRFTISRDNAKNTVYLQMNSLNPEDTAVYFCAAARGGEYWGQGTQVTVSS | high polyreactivity |
| QVQLVESGGGLVQAGGSLRLSSAASGRTFNIYAKGWYRHAPGKERELVAAITWRSGSTYDADSVKGRFTISRDNAKNTVYLQMNSLKPEDTAVYYCAAEQWSSVPEFDYWGQGTQVTVSS | high polyreactivity |
| QVQLVESGGGLVQAGGSLRLSSAASGRTFRHYALGWSRQAPGKERELVAVISWRGTGTYYADSVKGRFTISRDNAKNTVYLQMTSLKPEDTSVYYCATVWGLGYRMNYWGQGTQVTVSS | high polyreactivity |
| QVQLVESGGGLVQAGGSLRLSSAASGRTFRYYAMGWYRQAPGKERELVASISDGGSTNYADSVKGRFTISRDNAKNTVYLQMNSLKPEDTAVYYCAADGWWQYDYWGQGTQVTVSS | low polyreactivity |
| QVQLVESGGGLVQAGGSLRLSSAASGRTFSSYAMGWYRQAPGKERELVAAINWSGASTYYADSVKGRFTISRDNAKNTVYLQMNSLKPEDTAVYYCAKSLYVGKYWQIRSSVDYWGQGTQVTVSS | low polyreactivity |
| QVQLVESGGGLVQAGGSLRLSSAASGRTFYDYAMGWYRQAPGKERELVAAITYSGGSTFYADSVKGRFTISRDNAKNTVYLQMNSLTPEDTAVYYCAAEVLRLGGAAEYDYCGQGTQVTVSS | low polyreactivity |
| QVQLVESGGGLVQAGGSLRLSSAASGRTFYRHAMGWYRQAPGKERELVAASTRSGSTNYADSVKGRFTISRDNAKNTVYLQMNSLKPEDTADYYCAAKFFRNTYSYGMDYWGQGTQVTVSS | high polyreactivity |
| QVQLVESGGGLVQAGGSLRLSSAASGRTFYRNAIGWYRQAPGKERELVAAISSGSTTYYADSVKGRFTISRDNAKNTVYLQMNSLKPEDTAVYYCATTLRQYKPPSGRDYWGQGTQVTVSS | low polyreactivity |
| QVQLVESGGGLVQAGGSLRLSSAASGRTFYSNAMGWYRQAPGKERELVAAITRGASTKYADSVKGRFTISRDNAKNSVYLQMNSLKPEDTAVYYCDTARYPRYIYDYWGQGTQVTVSS | low polyreactivity |
| QVQLVESGGGLVQAGGSLRLSSAASGRTFYWYAMGWYRQAPGKQRELVASISIDGRTYYADSVKGRFTISRDNAKNNVYLQMNSLKPEDTAVYYCNVVRYYPYRPTTKRGGGYWGQGTQVSVSS | high polyreactivity |
